From article PMC9434101 (The EMBO Journal, 2022)
Ends that are not written are not given here.

B1: recombinant full-length MIA40/CHCHD4^C4S,C53S,C55S (natural protein)
chain: MSYSRQEGKDRIIFVTKEDHETPSSAELVADDPNDPYEEHGLILPNGNINWNSPSLGGMASGPCGEQFKSAFSCFHYSTEEIKGSDCVDQFRAMQECMQKYPDLYPQEDEDEEEEREKKPAEQAEETAPIEATATKEEEGSS

Tests used:
[1] = biological target: T1, 6xHis-tagged AIFM1(103–613) (UniProt O95831 103-613); assay: ITC
[2] = biological target: T1, 6xHis-tagged AIFM1(103–613); assay: ITC; remark: listed apart in the source

T1 sequence (O95831 103-613): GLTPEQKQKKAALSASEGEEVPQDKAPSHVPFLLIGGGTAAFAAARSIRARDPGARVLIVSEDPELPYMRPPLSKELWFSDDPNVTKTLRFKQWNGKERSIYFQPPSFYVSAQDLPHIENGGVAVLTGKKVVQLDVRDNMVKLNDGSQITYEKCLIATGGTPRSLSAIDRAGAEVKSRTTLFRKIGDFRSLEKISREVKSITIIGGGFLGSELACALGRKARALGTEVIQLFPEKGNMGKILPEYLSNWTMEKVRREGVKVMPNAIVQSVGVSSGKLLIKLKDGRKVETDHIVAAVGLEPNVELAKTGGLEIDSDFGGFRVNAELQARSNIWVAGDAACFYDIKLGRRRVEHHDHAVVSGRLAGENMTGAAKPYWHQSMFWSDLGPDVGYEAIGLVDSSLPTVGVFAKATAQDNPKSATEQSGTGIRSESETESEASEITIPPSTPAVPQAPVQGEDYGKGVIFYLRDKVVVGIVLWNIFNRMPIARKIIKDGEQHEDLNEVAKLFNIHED

Binder | stoichiometry N [1] [AIFM1 per MIA40/CHCHD4] | Kd [2] [nM]
B1 | 2 | 
GSEGKDRIIFVTKEDHETPSSAEL-NH2 [CHCHD4/MIA40 peptide (unlabeled), GSEGKDRIIFVTKEDHETPSSAEL-NH2] |  | 2940
